In US10927153 (UNIVERSITY OF SOUTH FLORIDA, dated 2021):
Residue numbers refer to the chain shown, from its start.

T1: Duffy Antigen Receptor for Chemokines (DARC) on human Duffy positive erythrocytes (human, UniProt Q16570 1-336)
T1 construct: whole, on cells; also called DARC positive erythrocytes
T1 sequence: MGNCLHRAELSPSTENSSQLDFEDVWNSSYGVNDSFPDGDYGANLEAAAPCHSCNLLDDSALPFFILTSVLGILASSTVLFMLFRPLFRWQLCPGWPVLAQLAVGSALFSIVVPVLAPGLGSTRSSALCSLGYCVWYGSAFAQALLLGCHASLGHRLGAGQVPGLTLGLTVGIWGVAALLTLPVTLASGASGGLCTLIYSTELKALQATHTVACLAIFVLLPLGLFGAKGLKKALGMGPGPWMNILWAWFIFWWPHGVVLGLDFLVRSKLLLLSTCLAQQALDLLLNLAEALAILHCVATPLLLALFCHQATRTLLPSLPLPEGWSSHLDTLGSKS

T2: Sal-1 DBP-II Mutant 12 (changes at residues 479 and 480), recombinant (Plasmodium vivax (strain Salvador I), UniProt P22290 211-525)
T2 chain: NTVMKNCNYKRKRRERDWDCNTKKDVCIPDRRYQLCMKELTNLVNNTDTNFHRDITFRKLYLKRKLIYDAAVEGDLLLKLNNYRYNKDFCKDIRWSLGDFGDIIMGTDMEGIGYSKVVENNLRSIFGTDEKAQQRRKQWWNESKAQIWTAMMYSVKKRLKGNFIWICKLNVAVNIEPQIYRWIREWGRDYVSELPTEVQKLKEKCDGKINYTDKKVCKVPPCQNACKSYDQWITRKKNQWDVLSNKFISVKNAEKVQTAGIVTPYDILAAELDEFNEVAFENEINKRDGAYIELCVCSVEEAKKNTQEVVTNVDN

T3: Sal-1 DBP-II Mutant 1 (changes at residues 218 and 221-223), recombinant (Plasmodium vivax (strain Salvador I), UniProt P22290 211-525)
T3 chain: T2 chain with N8S, R11G, K12S, R13G, A269K, A270Q

B1: DEKnull-4 expressed on the surface of COS7 cells (designed binder)
chain: TISSAIINHAFLQNTVMKNCNYKRKRRERDWDCNTKKDVCIPDRRYQLCMKALTNLVNNTDTNFHRDITARKAYLAAKLTADAASEGDLLLKLAATATSAATCKDIRWSLGDFGDIIMGTDMEGIGYSKVVENNLRSIFGTDEKAQQRRKQWWNESKATIWTAMMASATASAATSAATAAKLNVAVNIEPQIYRWIREWGRDYVSELPTEVQKLKEKCDGKINYTDKKVCKVPPCQNACKSYDQWITRKKNQWDVLSNKFISVKNAEKVQTAGIVTPYDILKQELDEFNEVAFENEINKRDGAYIELCVCSVEEAKKNTQEVVTNVDN
notes: also called COS7 cell surface-expressed DEKnull-4
B2: anti-DBPII monoclonal antibody mAb 2C6 (antibody, V domains shown)
VH: QVQLQQSDAELVKPGASVKISCKVSGYTFTDHSIHWMKQRPEQGLEWIGYIYPRDGSTEYNEKFKGKATLTTDKSSSTAYMQLNSLTSADSAVYFCARWFGYYFDYWGQGTTLTVSS
VL: NIMMTQSPSSLAVSAGEKVTMSCKSSQSVLYSSNQKNYLAWYQQKPGQSPKLLIYWASSRESGVPDRFTGSGSGTDFTLTISSVQPEDLAVYYCHQYLSSWTFGGGTKLEITR
B3: recombinant DEKnull-3 (designed binder)
chain: TISSAIINHAFLQNTVMKNCNYKRKRRERDWDCNTKKDVCIPDRRYQLCMKELTNLTATATSAAHRDITFRKLYAARTSAYDAAVEGDLLLKLTNYRASTDACKAATWSLGDFGDIIMGTDMEGIGYSKVVATNLRSIFGTDEKAQQRRKQWTATSKAQIWTAMMAASTAASKGNAIWSCKLNVAVNIEPTIAAWIATSARATSSELPTEVQKLKEKCDGKINYTDKKVCKVPPCQNACKSYDQWITRKKNQWDVLSNKFISVKNAEKVQTAGIVTPYDILKQELDEFNEVAFENEINKRDGAYIELCVCSVEEAKKNTQEVVTNVDNHHHHHH
notes: also called rDEKnull-3
B4: recombinant DEKnull-4 (designed binder)
chain: TISSAIINHAFLQNTVMKNCNYKRKRRERDWDCNTKKDVCIPDRRYQLCMKALTNLVNNTDTNFHRDITARKAYLAAKLTADAASEGDLLLKLAATATSAATCKDIRWSLGDFGDIIMGTDMEGIGYSKVVENNLRSIFGTDEKAQQRRKQWWNESKATIWTAMMASATASAATSAATAAKLNVAVNIEPQIYRWIREWGRDYVSELPTEVQKLKEKCDGKINYTDKKVCKVPPCQNACKSYDQWITRKKNQWDVLSNKFISVKNAEKVQTAGIVTPYDILKQELDEFNEVAFENEINKRDGAYIELCVCSVEEAKKNTQEVVTNVDNHHHHHH
notes: Dimerization residues of Sal1 mutated; also called rDEKnull-4
B5: DEKnull-3 expressed on the surface of COS7 cells (designed binder)
chain: TISSAIINHAFLQNTVMKNCNYKRKRRERDWDCNTKKDVCIPDRRYQLCMKELTNLTATATSAAHRDITFRKLYAARTSAYDAAVEGDLLLKLTNYRASTDACKAATWSLGDFGDIIMGTDMEGIGYSKVVATNLRSIFGTDEKAQQRRKQWTATSKAQIWTAMMAASTAASKGNAIWSCKLNVAVNIEPTIAAWIATSARATSSELPTEVQKLKEKCDGKINYTDKKVCKVPPCQNACKSYDQWITRKKNQWDVLSNKFISVKNAEKVQTAGIVTPYDILKQELDEFNEVAFENEINKRDGAYIELCVCSVEEAKKNTQEVVTNVDN
notes: also called COS7 cell surface-expressed DEKnull-3
B6: DBPII Sal1 expressed on the surface of COS7 cells (ligand)
chain: TISSAIINHAFLQNTVMKNCNYKRKRRERDWDCNTKKDVCIPDRRYQLCMKELTNLVNNTDTNFHRDITFRKLYLKRKLIYDAAVEGDLLLKLNNYRYNKDFCKDIRWSLGDFGDIIMGTDMEGIGYSKVVENNLRSIFGTDEKAQQRRKQWWNESKAQIWTAMMYSVKKRLKGNFIWICKLNVAVNIEPQIYRWIREWGRDYVSELPTEVQKLKEKCDGKINYTDKKVCKVPPCQNACKSYDQWITRKKNQWDVLSNKFISVKNAEKVQTAGIVTPYDILKQELDEFNEVAFENEINKRDGAYIELCVCSVEEAKKNTQEVVTNVDN
notes: also called COS7 cell surface-expressed Sal1; wild type DBPII Sal1
B7: recombinant DBPII Sal1 (ligand domain, region II, of Plasmodium vivax Duffy binding protein, Sal1 allele) (ligand)
chain: B6 chain
notes: also called rDBPII Sal1; rDBPII
B8: recombinant DEKnull (designed binder)
chain: B6 chain with D142A, E143A, K144T, Q147A, R148T, K150S, W153T, N154S
notes: also called rDEKnull; original DEKnull
B9: DEKnull-2 expressed on the surface of COS7 cells (designed binder)
chain: TISSAIINHAFLQNTVMKNCNYKRKRRERDWDCNTKKDVCIPDRRYQLCMKELTNLVNNTDTNFHADITFRKLYLKAKLIYDAAVEGDLLTKLNNYRYNKDFCKDIRWSLGDFGDIIMGTDMEGIGTSAVVENNLRSIFGTAATAQARRSQWTSESKAQIWTAMMYSVKKRLKGTFIWICKANVAVNIEPQIYRSIREWGRDYVAELPTEVTKLKEKCDGKINYADKKVCKVPPCQNACKSYDQWITRKANQWDVLSNKFTSAKNAEKAQTASIVTPYDILKQELDEFNEVAFENEINKRDGAYIELCVCSVEEAKKNTQEVVTNVDN
notes: also called COS7 cell surface-expressed rDEKnull-2
B10: recombinant DEKnull-2 (designed binder)
chain: TISSAIINHAFLQNTVMKNCNYKRKRRERDWDCNTKKDVCIPDRRYQLCMKELTNLVNNTDTNFHADITFRKLYLKAKLIYDAAVEGDLLTKLNNYRYNKDFCKDIRWSLGDFGDIIMGTDMEGIGTSAVVENNLRSIFGTAATAQARRSQWTSESKAQIWTAMMYSVKKRLKGTFIWICKANVAVNIEPQIYRSIREWGRDYVAELPTEVTKLKEKCDGKINYADKKVCKVPPCQNACKSYDQWITRKANQWDVLSNKFTSAKNAEKAQTASIVTPYDILKQELDEFNEVAFENEINKRDGAYIELCVCSVEEAKKNTQEVVTNVDNHHHHHH
notes: Polymorphic residues of Sal1 mutated; also called rDEKnull-2

Key:
[1] = biological target: T1, Duffy Antigen Receptor for Chemokines …; test: COS7 cell binding assay (rosettes)
[2] = biological target: T2, Sal-1 DBP-II Mutant 12 (changes at …); test: ELISA on adsorbed recombinant protein
[3] = biological target: T3, Sal-1 DBP-II Mutant 1 (changes at …); test: ELISA on adsorbed recombinant protein
[4] = biological target: T4, Sal-1 DBP-II expressed on the surface of HEK293T cells (Plasmodium vivax, UniProt P22290 198-525); test: immunofluorescence on HEK293T cells, 10 ug/mL mAb
T4 construct: Expressed from the pRE4 vector on HEK293T cells; also called P. vivax Sal-1 DBP-II

[5] = biological target: T1, Duffy Antigen Receptor for Chemokines …; test: in vitro erythrocyte binding assay, eluted antigen detected by blot with mAb-3D10
[6] = biological target: T1, Duffy Antigen Receptor for Chemokines …; test: in vitro erythrocyte binding assay, blot of eluted antigen

Row | Binder | binding result [1] | binding result [6] | also measured
1 | B1 | no binding |  | 
2 | B2 |  |  | binding result [2]: no binding; binding result [3]: binds; binding result [4]: binds
3 | B3 |  |  | binding result [5]: no binding
4 | B4 |  |  | binding result [5]: no binding
5 | B5 | no binding |  | 
6 | B6 | binds |  | 
7 | B7 |  | binds | 
8 | B8 |  | binds | 
9 | B9 | binds |  | 
10 | B10 |  | binds | 
